The labels stand for the following.
B1: TNKS SAM domain (1,018-1,093), wild type [human] / itself (parent)
chain: ERKEGEVAGLDMNISQFLKSLGLEHLRDIFETEQITLDVLADMGHEELKEIGINAYGHRHKLIKGVERLLGGQQGT

In the assay the parent is B1. Description: SEC-MALS. The conditions noted are these: with itself; 0.5 mM; n = 2.
For chain 1 V39W, the screen value is 10.6 kDa.
For the variant chain 1 V39W Y56A, the screen value was 9.3 kDa.
Next, chain 1 Y56A: 10.4 kDa.

The values above are taken from PMC4980433 (Molecular Cell, 2016).
